US20220040319A1 (Regeneron, published 2022)

How the values were obtained:
human MET on cells [1] = biological target: T1, human MET on cells (human, UniProt P08581 25-1390); assay: cell-based or functional assay
human MET on cells [2] = biological target: T1, human MET on cells; assay: cell-based or functional assay; remark: listed apart in the source
For % Inhibition, HEK293/SRE-Luc Blocking Activity (HGF, 1 h mAb pre-bind) in this document: test concentration or dose not given here.

T1 sequence (P08581 25-1390 limits assumed, form in doubt): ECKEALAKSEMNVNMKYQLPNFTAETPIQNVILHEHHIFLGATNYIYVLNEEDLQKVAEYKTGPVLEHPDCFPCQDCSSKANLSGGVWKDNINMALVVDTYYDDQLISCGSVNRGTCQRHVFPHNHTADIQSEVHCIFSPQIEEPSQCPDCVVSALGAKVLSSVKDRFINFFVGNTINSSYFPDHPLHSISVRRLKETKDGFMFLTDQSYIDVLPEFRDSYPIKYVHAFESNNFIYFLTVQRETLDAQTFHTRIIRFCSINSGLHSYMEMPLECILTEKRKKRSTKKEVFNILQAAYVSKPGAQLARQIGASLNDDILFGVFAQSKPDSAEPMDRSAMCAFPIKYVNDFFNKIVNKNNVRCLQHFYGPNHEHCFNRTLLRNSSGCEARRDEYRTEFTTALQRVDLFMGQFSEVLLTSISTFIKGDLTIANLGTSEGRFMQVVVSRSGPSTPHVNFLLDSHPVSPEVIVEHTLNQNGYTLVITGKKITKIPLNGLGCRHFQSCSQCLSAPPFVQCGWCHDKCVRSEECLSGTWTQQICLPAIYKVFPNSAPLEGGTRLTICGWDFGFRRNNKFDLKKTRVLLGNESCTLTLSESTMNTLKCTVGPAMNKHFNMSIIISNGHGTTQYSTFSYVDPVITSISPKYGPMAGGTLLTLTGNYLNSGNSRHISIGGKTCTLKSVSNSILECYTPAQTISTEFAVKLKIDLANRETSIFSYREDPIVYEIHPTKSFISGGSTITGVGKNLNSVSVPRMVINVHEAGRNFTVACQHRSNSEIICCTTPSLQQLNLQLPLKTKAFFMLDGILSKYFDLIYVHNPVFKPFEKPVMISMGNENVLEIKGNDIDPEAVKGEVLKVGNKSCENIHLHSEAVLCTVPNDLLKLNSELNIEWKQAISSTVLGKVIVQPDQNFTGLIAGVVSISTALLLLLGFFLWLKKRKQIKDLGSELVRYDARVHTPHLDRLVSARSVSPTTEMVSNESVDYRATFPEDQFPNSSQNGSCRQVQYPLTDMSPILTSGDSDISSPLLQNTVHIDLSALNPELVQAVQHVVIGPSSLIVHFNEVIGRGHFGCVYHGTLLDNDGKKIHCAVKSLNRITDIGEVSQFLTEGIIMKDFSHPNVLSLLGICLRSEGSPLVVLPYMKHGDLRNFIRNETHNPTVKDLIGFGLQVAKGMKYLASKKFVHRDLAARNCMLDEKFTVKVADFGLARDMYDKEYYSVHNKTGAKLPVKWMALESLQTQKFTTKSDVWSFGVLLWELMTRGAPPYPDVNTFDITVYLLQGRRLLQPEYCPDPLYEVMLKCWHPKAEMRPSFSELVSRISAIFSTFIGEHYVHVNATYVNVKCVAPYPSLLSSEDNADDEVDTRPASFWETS

Binder | % Inhibition, HEK293/SRE-Luc Blocking Activity (HGF, 1 h mAb pre-bind) (human MET on cells [1]) | Fold Response, Ligand (HGF)-Independent HEK293/SRE-Luc Activation (human MET on cells [1]) | IC50, HEK293/SRE-Luc Blocking Activity (HGF, 1 h mAb pre-bind) (human MET on cells [1]) | % Growth Inhibition, SNU5 cells (human MET on cells [2]) | IC50, SNU5 growth (human MET on cells [2]) | EC50, Ligand (HGF)-Independent HEK293/SRE-Luc Activation (human MET on cells [1])
H4H13302P2 (antibody, human IgG4, V domains shown) VH: QVQLVESGGGVVQPGRSLRLSCAASGFTFSNFGMHWVRQAPGKGLEWVAGIWFDGSNKNYIDSVKGRFTISRDNSKNTLYLQMNSLRAEDTAVYYCAREGYDSGTDYIPYDIFDIWGQGTMVTVSS VL: not shown | 45% | 1.8 fold | 1.6 nM | 40% | 0.11 nM | 
H4H13325P2 (antibody, human IgG4, V domains shown) VH: EVQLLESGGGWVQPGGSLRLSCAASGFAFSNYAMNWVRQTPGKGLEWVSVISSSGGNTYYADSVKGRFAISRDNSRDTLHLQMNRLRVEDTAVYYCAKEIRPYYDLSYYYGMDVWGQGTTVTVSS VL: not shown | 69% | 4.3 fold | 0.013 nM | 57% | 0.044 nM | 0.19 nM
H4H13291P2 (antibody, human IgG4, V domains shown) VH: QVQLVESGGGVVQPGGSLRLSCAASGFTFSGYGMHWVRQAPGKGLEWMAVIWYDGSNDYYPDSVKGRFTISRDNSKNTLYLQMNSLRVEDTAVYYCARDAWDLLRSFDYWGQGTLVTVSS VL: not shown | 61% | 2.7 fold | 0.13 nM | 24% |  | 0.39 nM
H4H13306P2 (antibody, human IgG4, V domains shown) VH: EVQLVESGGGLVQPGTSLRLSCAASGFTFDDYAMHWVRQAPGKGLEWVSGITWNSYNIDYADSVKGRFTISRDNAKNSLYLQMNSLRAEDTALYYCAKDDDYSNYVYFDYWGQGTLVTVSS VL: not shown |  |  |  | 28% | 0.071 nM | 0.013 nM
H4H13309P2 (antibody, human IgG4, V domains shown) VH: QVQLVQSGTEVKEPGASVKVSCKASGYSFTTYGISWLRQAPGQGLEWMGWISTYNGDTISAQMLQDRVTLTADTSTRTAYMELRSLRSDDTAVYYCARGHEYDSLVYSYWGQGTLVTVSS VL: not shown | 77% | 9.2 fold | 0.2 nM | 22% | 0.1 nM | 0.39 nM
H4H13300P2 (antibody, human IgG4, V domains shown) VH: QVQLVESGGGVVQPGRSLRLSCAVSGFTFSSYGMHWVRQAPGKGLEWVANIWYDGTNDYYPYSVKGRFTISRDNSQNTLYLQMNSLRAEDTAVYYCAREDFINYRSFDYWGQGTLVTVSS VL: not shown | 69% | 2.8 fold | 0.12 nM | 16% |  | 0.48 nM
H4H13318P2 (antibody, human IgG4, V domains shown) VH: QVQLVESGGGVVQPGRSLRLSCVASGFSFSNFGMHWVRQAPGKGLEWVAIIWYDGSNKYYSDSVKGRFTISRDNSKNTLYLQMNSLRVDDTAVYYCARFDRWKFDAFDIWGQGTMVTVSS VL: not shown | 77% | 3.1 fold | 0.1 nM | 18% | 0.051 nM | 
H4H13295P2 (antibody, human IgG4, V domains shown) VH: QVQLVESGGGVVQPGRSLRVSCVVSGFTFSSFGMHWVRQAPDKGLEWVAVIWYDGSNDYYSDSVKGRFTISRDNSKNTLFLQMNRLRAEDTAVYYCARANNWNRFDAFDLWGQGTMVTVSS VL: not shown | 70% | 2.8 fold | 0.055 nM | 30% |  | 0.3 nM
